The data set deals with T1, AtHYL1-FL (HYL1/DRB1 full length) (Arabidopsis thaliana, UniProt O04492 1-419).
T1 sequence: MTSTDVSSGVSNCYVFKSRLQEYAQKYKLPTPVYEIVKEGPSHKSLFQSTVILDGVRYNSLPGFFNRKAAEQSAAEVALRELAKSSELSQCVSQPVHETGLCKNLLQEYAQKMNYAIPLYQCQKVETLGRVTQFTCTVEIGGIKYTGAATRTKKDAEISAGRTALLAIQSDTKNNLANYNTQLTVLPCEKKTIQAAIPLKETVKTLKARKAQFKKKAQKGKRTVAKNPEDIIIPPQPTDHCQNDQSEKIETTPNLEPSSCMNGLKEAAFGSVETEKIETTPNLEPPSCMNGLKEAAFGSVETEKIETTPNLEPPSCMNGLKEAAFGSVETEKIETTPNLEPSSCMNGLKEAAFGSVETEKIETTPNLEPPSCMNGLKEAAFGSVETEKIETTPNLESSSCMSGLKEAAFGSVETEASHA
Nature of the data set: EMSA. For orientation: Mobility shift assays separate free from complexed probe on a gel.

B1: 50-nt DNA hairpin (dsDNA hairpin loop) (structured_DNA)
DNA: GCCCTGCAACCGAGACCACGCTTATGGAGCCTGGGACGTGGTCTCGGTTG
As for B1, the binding result is reported as “binds”.

Source of the values: article doi:10.1101/396861.
